To fix the notation:
B1: Zinc finger homeobox protein 4, residues 2086 to 2141; numbered along this chain, Q86UP3 (parent)
chain: RPRTRITDDQLKILRAYFDINNSPSEEQIQEMAEKSGLSQKVIKHWFRNTLFKERQ

Among the data in the Human Domainome abundance scans (Beltran et al. 2025) are abundance fitness values, retold here.

± gives the uncertainty stated by the source.

This data set covers variants of B1. The data set can be described thus: abundance fitness (aPCA) (normalised: wild type 0, dead -1); higher = more abundant; growth selection in yeast, the domain comes from the species named. The note with it: Homo sapiens.
Regarding RPRTRITDDQLKILRAYFDINNSPSEEQIQEMAEKSCLSQKVIKHWFRNTLFKERQ [G37C], the abundance fitness was -0.132 ± 0.095.
As for RPRTRITDDQLKILRAYFDINNSPSEEQIQEMAEKSELSQKVIKHWFRNTLFKERQ [G37E], the abundance fitness is -0.092 ± 0.088.
In the case of RPRTRITDDQLKILRAYFDINNSPSEEQIQEMAEKSRLSQKVIKHWFRNTLFKERQ [G37R] it was -0.032 ± 0.073; in that of RPRTRITDDQLKILRAYFDINNSPSEEQIQEMAEKSHLSQKVIKHWFRNTLFKERQ [G37H], -0.137 ± 0.15; in that of RPRTRITDDQLKILRAYFDINNSPSEEQIQEMAEKSTLSQKVIKHWFRNTLFKERQ [G37T], -0.083 ± 0.1.
As for RPRTRITDDQLKILRAYFDINNSPSEEQIQEMAEKSNLSQKVIKHWFRNTLFKERQ [G37N], the abundance fitness was found to be 0.032 ± 0.16.
Consider RPRTRITDDQLKILRAYFDINNSPSEEQIQEMAEKSPLSQKVIKHWFRNTLFKERQ [G37P], for which the abundance fitness was -0.805 ± 0.11.
For RPRTRITDDQLKILRAYFDINNSPSEEQIQEMAEKSSLSQKVIKHWFRNTLFKERQ [G37S], the abundance fitness is -0.15 ± 0.081.
Take RPRTRITDDQLKILRAYFDINNSPSEEQIQEMAEKSYLSQKVIKHWFRNTLFKERQ [G37Y]: the abundance fitness is -0.429 ± 0.14.
In the case of RPRTRITDDQLKILRAYFDINNSPSEEQIQEMAEKSMLSQKVIKHWFRNTLFKERQ [G37M] it was -0.06 ± 0.11; in that of RPRTRITDDQLKILRAYFDINNSPSEEQIQEMAEKSLLSQKVIKHWFRNTLFKERQ [G37L], -0.014 ± 0.086; in that of RPRTRITDDQLKILRAYFDINNSPSEEQIQEMAEKSFLSQKVIKHWFRNTLFKERQ [G37F], -0.46 ± 0.18.
In the case of RPRTRITDDQLKILRAYFDINNSPSEEQIQEMAEKSQLSQKVIKHWFRNTLFKERQ [G37Q] it was -0.052 ± 0.1; in that of RPRTRITDDQLKILRAYFDINNSPSEEQIQEMAEKSALSQKVIKHWFRNTLFKERQ [G37A], -0.164 ± 0.076.
As to RPRTRITDDQLKILRAYFDINNSPSEEQIQEMAEKSILSQKVIKHWFRNTLFKERQ [G37I], the abundance fitness was -0.602 ± 0.18.
In the case of RPRTRITDDQLKILRAYFDINNSPSEEQIQEMAEKSVLSQKVIKHWFRNTLFKERQ [G37V] it was -0.378 ± 0.072; in that of RPRTRITDDQLKILRAYFDINNSPSEEQIQEMAEKSWLSQKVIKHWFRNTLFKERQ [G37W], -0.535 ± 0.08; in that of RPRTRITDDQLKILRAYFDINNSPSEEQIQEMAEKSKLSQKVIKHWFRNTLFKERQ [G37K], -0.054 ± 0.1.
Under RPRTRITDDQLKILRAYFDINNSPSEEQIQEMAEKSDLSQKVIKHWFRNTLFKERQ [G37D] stands -0.07 ± 0.097; under RPRTRITDDQLKILRAYFDINNSPSEEQIQEMAYKSGLSQKVIKHWFRNTLFKERQ [E34Y], -0.502 ± 0.2.
In the case of RPRTRITDDQLKILRAYFDINNSPSEEQIQEMAHKSGLSQKVIKHWFRNTLFKERQ [E34H] it was -0.314 ± 0.16.
Regarding RPRTRITDDQLKILRAYFDINNSPSEEQIQEMAWKSGLSQKVIKHWFRNTLFKERQ [E34W], the abundance fitness is -0.276 ± 0.098.
As to RPRTRITDDQLKILRAYFDINNSPSEEQIQEMAKKSGLSQKVIKHWFRNTLFKERQ [E34K], the abundance fitness is -0.147 ± 0.14.
RPRTRITDDQLKILRAYFDINNSPSEEQIQEMALKSGLSQKVIKHWFRNTLFKERQ [E34L]: the abundance fitness was -0.054 ± 0.085.
Under RPRTRITDDQLKILRAYFDINNSPSEEQIQEMADKSGLSQKVIKHWFRNTLFKERQ [E34D] stands -0.014 ± 0.1; under RPRTRITDDQLKILRAYFDINNSPSEEQIQEMAPKSGLSQKVIKHWFRNTLFKERQ [E34P], -0.536 ± 0.14.
Consider RPRTRITDDQLKILRAYFDINNSPSEEQIQEMAIKSGLSQKVIKHWFRNTLFKERQ [E34I], for which the abundance fitness was -0.211 ± 0.19.
Under RPRTRITDDQLKILRAYFDINNSPSEEQIQEMASKSGLSQKVIKHWFRNTLFKERQ [E34S] stands -0.162 ± 0.083; under RPRTRITDDQLKILRAYFDINNSPSEEQIQEMAFKSGLSQKVIKHWFRNTLFKERQ [E34F], -0.392 ± 0.12.
Take RPRTRITDDQLKILRAYFDINNSPSEEQIQEMAGKSGLSQKVIKHWFRNTLFKERQ [E34G]: the abundance fitness came out at 0.033 ± 0.068.
Under RPRTRITDDQLKILRAYFDINNSPSEEQIQEMAMKSGLSQKVIKHWFRNTLFKERQ [E34M] stands -0.221 ± 0.13; under RPRTRITDDQLKILRAYFDINNSPSEEQIQEMANKSGLSQKVIKHWFRNTLFKERQ [E34N], -0.136 ± 0.14.
In the case of RPRTRITDDQLKILRAYFDINNSPSEEQIQEMAVKSGLSQKVIKHWFRNTLFKERQ [E34V] it was -0.037 ± 0.073; in that of RPRTRITDDQLKILRAYFDINNSPSEEQIQEMATKSGLSQKVIKHWFRNTLFKERQ [E34T], 0.023 ± 0.11.
Turning to RPRTRITDDQLKILRAYFDINNSPSEEQIQEMAEKKGLSQKVIKHWFRNTLFKERQ [S36K], the abundance fitness was -0.824 ± 0.15.
In the case of RPRTRITDDQLKILRAYFDINNSPSEEQIQEMAEKGGLSQKVIKHWFRNTLFKERQ [S36G] it was -0.28 ± 0.064; in that of RPRTRITDDQLKILRAYFDINNSPSEEQIQEMAEKYGLSQKVIKHWFRNTLFKERQ [S36Y], -0.267 ± 0.1.
On to RPRTRITDDQLKILRAYFDINNSPSEEQIQEMAEKRGLSQKVIKHWFRNTLFKERQ [S36R], for which the abundance fitness is -0.533 ± 0.066.
In the case of RPRTRITDDQLKILRAYFDINNSPSEEQIQEMAEKMGLSQKVIKHWFRNTLFKERQ [S36M] it was -0.213 ± 0.12; in that of RPRTRITDDQLKILRAYFDINNSPSEEQIQEMAEKNGLSQKVIKHWFRNTLFKERQ [S36N], -0.374 ± 0.18.
On to RPRTRITDDQLKILRAYFDINNSPSEEQIQEMAEKIGLSQKVIKHWFRNTLFKERQ [S36I], for which the abundance fitness is -0.082 ± 0.15.
RPRTRITDDQLKILRAYFDINNSPSEEQIQEMAEKQGLSQKVIKHWFRNTLFKERQ [S36Q]: the abundance fitness was -0.342 ± 0.11.
In the case of RPRTRITDDQLKILRAYFDINNSPSEEQIQEMAEKLGLSQKVIKHWFRNTLFKERQ [S36L] it was -0.214 ± 0.079; in that of RPRTRITDDQLKILRAYFDINNSPSEEQIQEMAEKWGLSQKVIKHWFRNTLFKERQ [S36W], -0.42 ± 0.084; in that of RPRTRITDDQLKILRAYFDINNSPSEEQIQEMAEKAGLSQKVIKHWFRNTLFKERQ [S36A], -0.06 ± 0.077.
RPRTRITDDQLKILRAYFDINNSPSEEQIQEMAEKPGLSQKVIKHWFRNTLFKERQ [S36P]: the abundance fitness was -0.874 ± 0.11.
Under RPRTRITDDQLKILRAYFDINNSPSEEQIQEMAEKDGLSQKVIKHWFRNTLFKERQ [S36D] stands -0.857 ± 0.13.
